Read-outs that look alike come from different tables or passages of the source.

Data set [1] addresses T1, LMW-PTP (LMW-PTPB) (Homo sapiens, UniProt P24666, L14R/I17K, form not given).
T1 construct: gene ACP1; N-terminal 6xHis tag (pNIC28a-Bsa4, TEV-cleavable; cleavage described only for crystallisation); E. coli BL21-DE3
T1 sequence (P24666 1-158 isoform P24666-2 L14R/I17K): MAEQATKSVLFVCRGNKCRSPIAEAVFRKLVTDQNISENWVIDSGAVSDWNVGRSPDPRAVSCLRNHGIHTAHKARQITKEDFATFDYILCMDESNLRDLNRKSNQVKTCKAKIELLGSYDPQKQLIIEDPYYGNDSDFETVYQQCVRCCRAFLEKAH
The data set can be described thus: malachite green phosphate release, Michaelis-Menten fit. In kind it is biochemical. As to conditions: pH 5.5, 37 °C, diC8 lipid. The source says:
(§1) malachite green phosphate release, Michaelis-Menten fit on LMW-PTP (LMW-PTPB)

Data set [2] has as its target T2, LMW-PTP (LMW-PTPB) (Homo sapiens, UniProt P24666, L14R/I17T, form not given).
T2 construct: gene ACP1; N-terminal 6xHis tag (pNIC28a-Bsa4, TEV-cleavable; cleavage described only for crystallisation); E. coli BL21-DE3
T2 sequence (P24666 1-158 isoform P24666-2 L14R/I17T): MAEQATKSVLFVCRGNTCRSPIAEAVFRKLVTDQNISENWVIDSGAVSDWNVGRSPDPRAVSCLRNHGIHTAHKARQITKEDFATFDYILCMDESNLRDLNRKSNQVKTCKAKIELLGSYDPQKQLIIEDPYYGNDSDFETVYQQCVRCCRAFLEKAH
Described as above. In kind it is biochemical. As to conditions: pH 5.5, 37 °C, diC8 lipid.
Text: as §1

Data set [3] deals with T1, LMW-PTP (LMW-PTPB). As to the kind of experiment: pNPP assay, Michaelis-Menten fit. In kind it is biochemical. As to conditions: pH 5.5, 37 °C; read-out: RK / Km. The source says: (§2) pNPP assay, Michaelis-Menten fit on LMW-PTP (LMW-PTPB)
Substrate in data set [4]: N[C@@H](Cc1ccc(OP(=O)(O)O)cc1)C(=O)O
The data set can be described thus: malachite green phosphate release, Michaelis-Menten fit. The conditions noted are these: pH 5.5, 37 °C. In kind it is biochemical, Homo sapiens.
Text: as §1

Substrate in data set [5]: O=[N+]([O-])c1ccc(OP(=O)(O)O)cc1
The data set can be described thus: pNPP assay, Michaelis-Menten fit. In kind it is biochemical, Homo sapiens. The conditions noted are these: pH 5.5, 37 °C.
Text: as §2

Substrate in data set [6]: CCCCCCCC(=O)OC[C@H](COP(=O)(O)O[C@@H]1[C@H](O)[C@H](OP(=O)(O)O)[C@@H](O)[C@H](OP(=O)(O)O)[C@H]1O)OC(=O)CCCCCCC
As to the kind of experiment: malachite green phosphate release, Michaelis-Menten fit. In kind it is biochemical, Homo sapiens. The conditions noted are these: pH 7.5, 37 °C, diC8 lipid. The source says:
malachite green phosphate release, Michaelis-Menten fit on MTMR2

Turning to `CCCCCCCC(=O)OC[C@H](COP(=O)(O)O[C@H]1[C@H](O)[C@@H](OP(=O)(O)O)[C@H](O)[C@@H](O)[C@H]1O)OC(=O)CCCCCCC` [PI(5)P], the Km on LMW-PTP (LMW-PTPB) [1] (read-out: RK / Km) was 35.9 ± 6.3 µM; on LMW-PTP (LMW-PTPB) [1] (read-out: RKK / Km) it was 27.2 ± 7 µM; at LMW-PTP (LMW-PTPB) [2] (read-out: RT / Km), 29.2 ± 3.7 µM; on LMW-PTP (LMW-PTPB) [2] (read-out: RTK / Km) it was 26.2 ± 3.9 µM.

For the molecule `CCCCCCCC(=O)OC[C@H](COP(=O)(O)O[C@@H]1[C@H](O)[C@H](OP(=O)(O)O)[C@@H](O)[C@H](O)[C@H]1O)OC(=O)CCCCCCC` [PI(3)P], the Km on LMW-PTP (LMW-PTPB) [1] (read-out: RK / Km) was 22.9 ± 5 µM.

For `O=[N+]([O-])c1ccc(OP(=O)(O)O)cc1` [pNPP], the Km at LMW-PTP (LMW-PTPB) [3] was determined as 1.39 ± 0.105 mM.

Take `CCCCCCCC(=O)OC[C@H](COP(=O)(O)O[C@H]1[C@H](O)[C@@H](O)[C@H](OP(=O)(O)O)[C@@H](O)[C@H]1O)OC(=O)CCCCCCC` [PI(4)P]: the Km at LMW-PTP (LMW-PTPB) [1] (read-out: RK / Km) came to 30.7 ± 3.5 µM.

B1: LMW-PTP (LMW-PTPB) (Homo sapiens) (protein)
chain: MAEQATKSVLFVCLGNICRSPIAEAVFRKLVTDQNISENWVIDSGAVSDWNVGRSPDPRAVSCLRNHGIHTAHKARQITKEDFATFDYILCMDESNLRDLNRKSNQVKTCKAKIELLGSYDPQKQLIIEDPYYGNDSDFETVYQQCVRCCRAFLEKAH
notes: N-terminal 6xHis tag (pNIC28a-Bsa4, TEV-cleavable; cleavage described only for crystallisation); E. coli BL21-DE3
On to B1, for which, in data set [4], the Km was 307 ± 29 µM, the kcat was determined as 0.000226 ± 1.9e-05 s⁻¹ and the kcat/Km was 0.735 ± 0.054 M⁻¹ s⁻¹. Further, in data set [5], the Km came to 476 ± 30.2 µM, the kcat was 6.03 ± 0.106 s⁻¹ and the kcat/Km was 12700 ± 670 M⁻¹ s⁻¹.

B2: MTMR2 (Homo sapiens) (protein)
chain: MEKSSSCESLGSQPAAARPPSVDSLSSASTSHSENSVHTKSASVVSSDSISTSADNFSPDLRVLRESNKLAEMEEPPLLPGENIKDMAKDVTYICPFTGAVRGTLTVTNYRLYFKSMERDPPFVLDASLGVINRVEKIGGASSRGENSYGLETVCKDIRNLRFAHKPEGRTRRSIFENLMKYAFPVSNNLPLFAFEYKEVFPENGWKLYDPLLEYRRQGIPNESWRITKINERYELCDTYPALLVVPANIPDEELKRVASFRSRGRIPVLSWIHPESQATITRCSQPMVGVSGKRSKEDEKYLQAIMDSNAQSHKIFIFDARPSVNAVANKAKGGGYESEDAYQNAELVFLDIHNIHVMRESLRKLKEIVYPNIEETHWLSNLESTHWLEHIKLILAGALRIADKVESGKTSVVVHCSDGWDRTAQLTSLAMLMLDGYYRTIRGFEVLVEKEWLSFGHRFQLRVGHGDKNHADADRSPVFLQFIDCVWQMTRQFPTAFEFNEYFLITILDHLYSCLFGTFLCNSEQQRGKENLPKRTVSLWSYINSQLEDFTNPLYGSYSNHVLYPVASMRHLELWVGYYIRWNPRMKPQEPIHNRYKELLAKRAELQKKVEELQREISNRSTSSSERASSPAQCVTPVQTVV
notes: E. coli BL21-DE3
As for B2, in data set [6], the Km came to 62 ± 4 µM and the kcat is 348 ± 17 x 10^-3 s^-1.

For the origin of these results see PMC7316235, “Computational and structure-guided design of phosphoinositide substrate specificity into the tyrosine specific LMW-PTP enzyme” (PLoS ONE, 2020).
